Experimental data published in patent US10370653B2, “Micro-screening apparatus, process, and products” (priority 2015, dated 2019).

Assays:
[1] = molecular target: fluorescently labeled phosphate-binding protein (PBP) from E. coli (Life Technologies, PV4406) (Escherichia coli, UniProt P0AG82, A222C); settings: inorganic phosphate ([Pi]); two-state binding isotherm; TrisHCl pH 7.6
Method: Briefly, 100 μL of each sample was mixed with 100 μL of 1 μM PBP in Phosphate Sensor Detection Buffer (20 mM TrisHCl pH 7.6, 0.05% Triton X-100), and fluorescence of the mixture was immediately read out at an excitation/emission of 430/450 nm on a Biotek SYNERGY™ H4 plate reader spectrophotometer. When measuring phosphate content in the AP Reaction Buffer, the buffer was diluted 1:20 in water prior to incubation with the sensor in order to minimize interference from the concentrated MOPS and salt solutions on the PBP binding thermodynamics. PBP stocks were stored as 10 μM aliquots in Phosphate Sensor Storage Buffer (10 mM TrisHCl pH 7.6, 50 mM NaCl) at −80° C. and individually thawed prior to use. […] Error bars reflect the standard deviation over three measurements.

[2] = tested on: CC1(C)C2=C(Cl)C(=O)C(Cl)=CC2=Nc2ccc(OP(=O)(O)O)cc21; assay: Michaelis-Menten kinetics of purified AP with DDAOP; type: biochemical, E. coli; settings: other: substrate DDAOP, purified protein, pH 8.0
Excerpt: (§1) Preparation of alkaline phosphatase protein constructs.
(§2) Analysis of alkaline phosphate activity.
(§3) Alkaline phosphatase was used as a model system.

[3] = tested on: CC1(C)C2=C(Cl)C(=O)C(Cl)=CC2=Nc2ccc(OP(=O)(O)O)cc21; assay: Michaelis-Menten kinetics of yeast-displayed AP with DDAOP; type: biochemical, E. coli; settings: other: substrate DDAOP, yeast display, pH 8.0
Excerpt: as §1, §2
For kinetic measurements on the μSCALE platform, a series of images were acquired at set intervals with 600/60 nm excitation/655 nm long pass emission filters to generate single-cell reaction time courses for each cavity in the array. […] Error bars reflect the standard deviation across all cavities in each spot and were used to fit a calibration line using weighted least squares. In both cases, the linear regime of each kinetic time series was used to estimate reaction rates.
as §3

Sequence of fluorescently labeled phosphate-binding protein (PBP) from E. coli (Life Technologies, PV4406) (P0AG82 26-346 A222C): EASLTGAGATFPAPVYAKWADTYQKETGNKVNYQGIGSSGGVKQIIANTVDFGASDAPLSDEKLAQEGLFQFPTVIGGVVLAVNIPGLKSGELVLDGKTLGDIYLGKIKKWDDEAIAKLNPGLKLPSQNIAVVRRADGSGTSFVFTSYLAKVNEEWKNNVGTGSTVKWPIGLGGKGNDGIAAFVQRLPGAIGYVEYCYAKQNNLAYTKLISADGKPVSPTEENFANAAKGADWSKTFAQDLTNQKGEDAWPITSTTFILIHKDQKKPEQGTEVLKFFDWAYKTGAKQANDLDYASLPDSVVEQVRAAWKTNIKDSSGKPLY

With `O=P(O)(O)O` [inorganic phosphate] the Kd [1] was 940 nM.
“E. coli alkaline phosphatase (AP) variant R166S, purified protein (Escherichia coli K-12; R188S)” was tested, and the Km [2] was 51 ± 4 µM, the kcat [2] was 0.7 ± 0.2 s⁻¹ and the kcat/Km [2] was “(1.4 +/− 0.4) × 10^4 M^-1 s^-1”.
In the case of “E. coli alkaline phosphatase (AP) variant R166S, yeast-displayed (Escherichia coli K-12; R188S)”, the Km [3] is reported as 55 ± 7 µM.
With “E. coli alkaline phosphatase (AP), wild type (WT), GENBANK Accession Number M13345, purified protein (Escherichia coli K-12)” the Km ([2]; 50 pM) was 4.1 ± 0.1 µM, the kcat ([2]; 50 pM) was 15.7 ± 0.2 s⁻¹ and the kcat/Km ([2]; 50 pM) was “(3.8 +/− 0.1) × 10^6 M^-1 s^-1”.
For “E. coli alkaline phosphatase (AP), wild type (WT), GENBANK Accession Number M13345, yeast-displayed (Escherichia coli K-12)”, the Km [3] was 4.3 ± 0.4 µM.
